Laboratory results from doi:10.1101/2020.11.17.387829v1.
Where two headings read alike, the source gives them in different places.

Substrate: O=[N+]([O-])c1ccc(O[C@@H]2O[C@H](CO)[C@@H](O)[C@H](O)[C@H]2O)cc1
Experiment: purified protein
[1] = average of two wild-type replicates (WT-1 2.4 mM, WT-2 5.3 ± 0.4 mM)
[2] = poorly determined fit: large printed errors
[3] = error exceeds the value, nearly inactive

B1: β-glucosidase B (BglB) (Paenibacillus polymyxa) (protein)
chain: MSENTFIFPATFMWGTSTSSYQIEGGTDEGGRTPSIWDTFCQIPGKVIGGDCGDVACDHFHHFKEDVQLMKQLGFLHYRFSVAWPRIMPAAGIINEEGLLFYEHLLDEIELAGLIPMLTLYHWDLPQWIEDEGGWTQRETIQHFKTYASVIMDRFGERINWWNTINEPYCASILGYGTGEHAPGHENWREAFTAAHHILMCHGIASNLHKEKGLTGKIGITLNMEHVDAASERPEDVAAAIRRDGFINRWFAEPLFNGKYPEDMVEWYGTYLNGLDFVQPGDMELIQQPGDFLGINYYTRSIIRSTNDASLLQVEQVHMEEPVTDMGWEIHPESFYKLLTRIEKDFSKGLPILITENGAAMRDELVNGQIEDTGRHGYIEEHLKACHRFIEEGGQLKGYFVWSFLDNFEWAWGYSKRFGIVHINYETQERTPKQSALWFKQMMAKNGF
How did the Km [1] turn out when B1 was run?
Its Km is 3.9 ± 0.3 mM.

And the kcat [1]?
Its kcat is 12.4 ± 0.158 s⁻¹.

B2: β-glucosidase B (BglB) (Paenibacillus polymyxa; L174M) (protein)
chain: MSENTFIFPATFMWGTSTSSYQIEGGTDEGGRTPSIWDTFCQIPGKVIGGDCGDVACDHFHHFKEDVQLMKQLGFLHYRFSVAWPRIMPAAGIINEEGLLFYEHLLDEIELAGLIPMLTLYHWDLPQWIEDEGGWTQRETIQHFKTYASVIMDRFGERINWWNTINEPYCASIMGYGTGEHAPGHENWREAFTAAHHILMCHGIASNLHKEKGLTGKIGITLNMEHVDAASERPEDVAAAIRRDGFINRWFAEPLFNGKYPEDMVEWYGTYLNGLDFVQPGDMELIQQPGDFLGINYYTRSIIRSTNDASLLQVEQVHMEEPVTDMGWEIHPESFYKLLTRIEKDFSKGLPILITENGAAMRDELVNGQIEDTGRHGYIEEHLKACHRFIEEGGQLKGYFVWSFLDNFEWAWGYSKRFGIVHINYETQERTPKQSALWFKQMMAKNGF
B2 was tested. Which Km did it give?
The Km was 4.3 ± 0.3 mM.

What about the kcat of the same protein?
The kcat was 14.79 ± 0.405 s⁻¹.

B3: β-glucosidase B (BglB) (Paenibacillus polymyxa; H181M) (protein)
chain: MSENTFIFPATFMWGTSTSSYQIEGGTDEGGRTPSIWDTFCQIPGKVIGGDCGDVACDHFHHFKEDVQLMKQLGFLHYRFSVAWPRIMPAAGIINEEGLLFYEHLLDEIELAGLIPMLTLYHWDLPQWIEDEGGWTQRETIQHFKTYASVIMDRFGERINWWNTINEPYCASILGYGTGEMAPGHENWREAFTAAHHILMCHGIASNLHKEKGLTGKIGITLNMEHVDAASERPEDVAAAIRRDGFINRWFAEPLFNGKYPEDMVEWYGTYLNGLDFVQPGDMELIQQPGDFLGINYYTRSIIRSTNDASLLQVEQVHMEEPVTDMGWEIHPESFYKLLTRIEKDFSKGLPILITENGAAMRDELVNGQIEDTGRHGYIEEHLKACHRFIEEGGQLKGYFVWSFLDNFEWAWGYSKRFGIVHINYETQERTPKQSALWFKQMMAKNGF
B3 was tested. Which Km did it give?
Its Km is 5.6 ± 1.9 mM.

What about the kcat of the same protein?
The kcat was 11.98 ± 1.807 s⁻¹.

B4: β-glucosidase B (BglB) (Paenibacillus polymyxa; M224L) (protein)
chain: MSENTFIFPATFMWGTSTSSYQIEGGTDEGGRTPSIWDTFCQIPGKVIGGDCGDVACDHFHHFKEDVQLMKQLGFLHYRFSVAWPRIMPAAGIINEEGLLFYEHLLDEIELAGLIPMLTLYHWDLPQWIEDEGGWTQRETIQHFKTYASVIMDRFGERINWWNTINEPYCASILGYGTGEHAPGHENWREAFTAAHHILMCHGIASNLHKEKGLTGKIGITLNLEHVDAASERPEDVAAAIRRDGFINRWFAEPLFNGKYPEDMVEWYGTYLNGLDFVQPGDMELIQQPGDFLGINYYTRSIIRSTNDASLLQVEQVHMEEPVTDMGWEIHPESFYKLLTRIEKDFSKGLPILITENGAAMRDELVNGQIEDTGRHGYIEEHLKACHRFIEEGGQLKGYFVWSFLDNFEWAWGYSKRFGIVHINYETQERTPKQSALWFKQMMAKNGF
Which results are given for B4?
Km: 4.2 mM; kcat: 10.51 s⁻¹

B5: β-glucosidase B (BglB) (Paenibacillus polymyxa; N163E) (protein)
chain: MSENTFIFPATFMWGTSTSSYQIEGGTDEGGRTPSIWDTFCQIPGKVIGGDCGDVACDHFHHFKEDVQLMKQLGFLHYRFSVAWPRIMPAAGIINEEGLLFYEHLLDEIELAGLIPMLTLYHWDLPQWIEDEGGWTQRETIQHFKTYASVIMDRFGERINWWETINEPYCASILGYGTGEHAPGHENWREAFTAAHHILMCHGIASNLHKEKGLTGKIGITLNMEHVDAASERPEDVAAAIRRDGFINRWFAEPLFNGKYPEDMVEWYGTYLNGLDFVQPGDMELIQQPGDFLGINYYTRSIIRSTNDASLLQVEQVHMEEPVTDMGWEIHPESFYKLLTRIEKDFSKGLPILITENGAAMRDELVNGQIEDTGRHGYIEEHLKACHRFIEEGGQLKGYFVWSFLDNFEWAWGYSKRFGIVHINYETQERTPKQSALWFKQMMAKNGF
For B5, which Km (error exceeds the value) is on record?
Its Km is 21.4 ± 52.4 mM.

And the kcat (error exceeds the value)?
Its kcat is 1.02 ± 0.483 s⁻¹.

B6: β-glucosidase B (BglB) (Paenibacillus polymyxa; F418M) (protein)
chain: MSENTFIFPATFMWGTSTSSYQIEGGTDEGGRTPSIWDTFCQIPGKVIGGDCGDVACDHFHHFKEDVQLMKQLGFLHYRFSVAWPRIMPAAGIINEEGLLFYEHLLDEIELAGLIPMLTLYHWDLPQWIEDEGGWTQRETIQHFKTYASVIMDRFGERINWWNTINEPYCASILGYGTGEHAPGHENWREAFTAAHHILMCHGIASNLHKEKGLTGKIGITLNMEHVDAASERPEDVAAAIRRDGFINRWFAEPLFNGKYPEDMVEWYGTYLNGLDFVQPGDMELIQQPGDFLGINYYTRSIIRSTNDASLLQVEQVHMEEPVTDMGWEIHPESFYKLLTRIEKDFSKGLPILITENGAAMRDELVNGQIEDTGRHGYIEEHLKACHRFIEEGGQLKGYFVWSFLDNFEWAWGYSKRMGIVHINYETQERTPKQSALWFKQMMAKNGF
For B6, which Km [2] is on record?
The Km was 29.6 ± 20.5 mM.

And the kcat [2]?
The kcat was 0.37 ± 0.572 s⁻¹.

B7: β-glucosidase B (BglB) (Paenibacillus polymyxa; E409W) (protein)
chain: MSENTFIFPATFMWGTSTSSYQIEGGTDEGGRTPSIWDTFCQIPGKVIGGDCGDVACDHFHHFKEDVQLMKQLGFLHYRFSVAWPRIMPAAGIINEEGLLFYEHLLDEIELAGLIPMLTLYHWDLPQWIEDEGGWTQRETIQHFKTYASVIMDRFGERINWWNTINEPYCASILGYGTGEHAPGHENWREAFTAAHHILMCHGIASNLHKEKGLTGKIGITLNMEHVDAASERPEDVAAAIRRDGFINRWFAEPLFNGKYPEDMVEWYGTYLNGLDFVQPGDMELIQQPGDFLGINYYTRSIIRSTNDASLLQVEQVHMEEPVTDMGWEIHPESFYKLLTRIEKDFSKGLPILITENGAAMRDELVNGQIEDTGRHGYIEEHLKACHRFIEEGGQLKGYFVWSFLDNFWWAWGYSKRFGIVHINYETQERTPKQSALWFKQMMAKNGF
With B7 as the protein, how does the Km [3] read?
Its Km is 2.5 ± 3.1 mM.

And the kcat [3]?
Its kcat is 0.0017 ± 0.0017 s⁻¹.
